Experiments:
SHP2-C SH2 = assay: SH2 binding enrichment of the phosphorylated peptide, bacterial display (enrichment ratio); higher = better substrate or ligand; peptides without Tyr show the background
Grb2 SH2 = Grb2 SH2 (UniProt P62993); assay: as above
c-Src SH2 = assay: as above
c-Abl (mouse) = assay: phosphorylation enrichment, bacterial display (enrichment ratio); higher = better substrate or ligand; peptides without Tyr show the background
Hck = Hck (UniProt P08631); assay: as above
c-Src = assay: as above
AncSZ = assay: as above
EPHB1 = EPHB1 (UniProt P54762); assay: as above
Jak2 = Jak2 (UniProt O60674); assay: as above
Fes = Fes (UniProt P07332); assay: as above
Fer (mouse) = assay: as above
EPHB2 = EPHB2 (UniProt P29323); assay: as above
MERTK = MERTK (UniProt Q12866); assay: as above
Fyn = Fyn (UniProt P06241); assay: as above
FGFR1 = FGFR1 (UniProt P11362); assay: as above
FGFR3 = FGFR3 (UniProt P22607); assay: as above
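Wherever SH2 binding enrichment of the phosphorylated peptide, bacterial display is given: peptide library displayed on the E. coli surface as eCPX fusions, selected cells deep-sequenced, score is each peptide's frequency after selection divided by its frequency in the input.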
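Wherever phosphorylation enrichment, bacterial display is given: 11-residue human phosphosite peptides and single-mutation variants displayed on the E. coli surface, counted by deep sequencing, each peptide's frequency after selection divided by its frequency in the unselected input library; frequency after pTyr selection over input frequency; kinase dosed for 20-30% of maximal phosphorylation in three min.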

Chain of MERTK (Q12866 whole entry, looked up): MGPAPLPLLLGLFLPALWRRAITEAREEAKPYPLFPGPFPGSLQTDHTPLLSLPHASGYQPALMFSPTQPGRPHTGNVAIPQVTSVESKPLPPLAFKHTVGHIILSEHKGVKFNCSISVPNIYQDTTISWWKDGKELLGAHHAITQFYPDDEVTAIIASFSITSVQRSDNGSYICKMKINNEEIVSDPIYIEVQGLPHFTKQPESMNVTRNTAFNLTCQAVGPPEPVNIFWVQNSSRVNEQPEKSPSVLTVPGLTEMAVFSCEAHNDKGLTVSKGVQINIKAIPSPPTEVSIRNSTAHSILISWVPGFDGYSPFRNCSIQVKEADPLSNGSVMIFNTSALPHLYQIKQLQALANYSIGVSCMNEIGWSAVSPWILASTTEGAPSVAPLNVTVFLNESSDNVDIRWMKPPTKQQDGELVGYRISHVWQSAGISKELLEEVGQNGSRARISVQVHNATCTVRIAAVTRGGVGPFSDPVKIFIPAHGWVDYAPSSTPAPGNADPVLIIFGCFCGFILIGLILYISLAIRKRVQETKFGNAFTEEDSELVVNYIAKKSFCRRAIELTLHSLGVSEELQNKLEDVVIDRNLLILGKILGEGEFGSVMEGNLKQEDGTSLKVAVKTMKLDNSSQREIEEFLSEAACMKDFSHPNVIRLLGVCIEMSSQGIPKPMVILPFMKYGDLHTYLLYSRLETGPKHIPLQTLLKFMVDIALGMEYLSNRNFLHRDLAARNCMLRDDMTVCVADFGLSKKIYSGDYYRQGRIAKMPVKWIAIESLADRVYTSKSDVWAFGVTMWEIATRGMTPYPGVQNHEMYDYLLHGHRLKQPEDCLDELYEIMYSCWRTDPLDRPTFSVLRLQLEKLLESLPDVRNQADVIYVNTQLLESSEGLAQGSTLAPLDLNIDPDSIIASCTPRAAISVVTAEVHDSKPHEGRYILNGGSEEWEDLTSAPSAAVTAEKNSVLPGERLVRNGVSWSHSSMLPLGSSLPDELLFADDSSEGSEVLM
Chain of Fes (P07332 whole entry, looked up): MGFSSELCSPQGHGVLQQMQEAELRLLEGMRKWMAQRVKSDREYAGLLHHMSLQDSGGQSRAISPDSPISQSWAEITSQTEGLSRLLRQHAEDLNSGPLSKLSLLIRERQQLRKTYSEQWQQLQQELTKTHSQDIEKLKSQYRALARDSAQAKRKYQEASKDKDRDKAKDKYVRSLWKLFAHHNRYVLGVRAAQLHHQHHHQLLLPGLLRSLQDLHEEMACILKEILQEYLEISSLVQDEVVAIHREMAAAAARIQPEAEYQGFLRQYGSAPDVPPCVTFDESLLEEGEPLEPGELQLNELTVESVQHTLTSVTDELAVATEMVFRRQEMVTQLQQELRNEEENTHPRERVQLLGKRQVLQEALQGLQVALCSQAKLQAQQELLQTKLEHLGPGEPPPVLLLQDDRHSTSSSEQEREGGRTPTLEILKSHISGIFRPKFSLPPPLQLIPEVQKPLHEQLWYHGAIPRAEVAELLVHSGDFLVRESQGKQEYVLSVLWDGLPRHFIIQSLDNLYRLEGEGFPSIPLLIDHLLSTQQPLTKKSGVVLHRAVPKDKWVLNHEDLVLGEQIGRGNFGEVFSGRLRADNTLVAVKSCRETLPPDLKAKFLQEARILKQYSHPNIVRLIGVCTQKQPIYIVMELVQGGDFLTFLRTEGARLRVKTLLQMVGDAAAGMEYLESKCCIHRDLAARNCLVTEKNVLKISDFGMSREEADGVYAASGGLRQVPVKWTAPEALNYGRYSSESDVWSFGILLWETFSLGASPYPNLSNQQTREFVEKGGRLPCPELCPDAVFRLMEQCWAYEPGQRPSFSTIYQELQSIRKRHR
Chain of Fyn (P06241 whole entry, looked up): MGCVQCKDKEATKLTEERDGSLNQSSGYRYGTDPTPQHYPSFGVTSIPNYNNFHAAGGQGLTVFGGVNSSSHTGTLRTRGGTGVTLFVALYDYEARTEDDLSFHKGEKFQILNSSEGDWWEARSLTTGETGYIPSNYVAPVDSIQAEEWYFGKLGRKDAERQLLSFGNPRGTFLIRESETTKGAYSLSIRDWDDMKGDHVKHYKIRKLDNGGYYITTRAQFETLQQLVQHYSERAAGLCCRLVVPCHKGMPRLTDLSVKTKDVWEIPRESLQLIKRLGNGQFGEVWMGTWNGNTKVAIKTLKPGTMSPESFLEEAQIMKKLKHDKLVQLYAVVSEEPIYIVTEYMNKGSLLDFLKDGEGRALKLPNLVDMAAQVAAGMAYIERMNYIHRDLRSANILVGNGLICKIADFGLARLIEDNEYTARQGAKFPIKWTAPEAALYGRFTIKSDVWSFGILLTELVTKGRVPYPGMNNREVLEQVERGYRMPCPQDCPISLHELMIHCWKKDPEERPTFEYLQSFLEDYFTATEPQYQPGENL
Chain of Hck (P08631 whole entry, looked up): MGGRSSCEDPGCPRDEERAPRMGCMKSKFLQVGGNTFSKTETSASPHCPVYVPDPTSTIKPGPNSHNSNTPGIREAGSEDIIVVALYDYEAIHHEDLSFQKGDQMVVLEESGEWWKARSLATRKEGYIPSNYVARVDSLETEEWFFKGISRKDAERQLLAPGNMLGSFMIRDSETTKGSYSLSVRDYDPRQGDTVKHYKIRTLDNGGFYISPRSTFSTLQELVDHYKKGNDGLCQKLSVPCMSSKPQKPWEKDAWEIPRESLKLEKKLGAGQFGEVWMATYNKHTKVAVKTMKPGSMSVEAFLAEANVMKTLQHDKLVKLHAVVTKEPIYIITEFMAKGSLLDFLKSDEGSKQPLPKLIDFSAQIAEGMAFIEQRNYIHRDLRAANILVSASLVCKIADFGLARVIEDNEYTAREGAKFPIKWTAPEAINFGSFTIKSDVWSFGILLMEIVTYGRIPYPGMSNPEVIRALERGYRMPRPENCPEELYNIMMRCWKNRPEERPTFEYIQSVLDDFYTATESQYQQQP
Chain of EPHB2 (P29323 whole entry, looked up): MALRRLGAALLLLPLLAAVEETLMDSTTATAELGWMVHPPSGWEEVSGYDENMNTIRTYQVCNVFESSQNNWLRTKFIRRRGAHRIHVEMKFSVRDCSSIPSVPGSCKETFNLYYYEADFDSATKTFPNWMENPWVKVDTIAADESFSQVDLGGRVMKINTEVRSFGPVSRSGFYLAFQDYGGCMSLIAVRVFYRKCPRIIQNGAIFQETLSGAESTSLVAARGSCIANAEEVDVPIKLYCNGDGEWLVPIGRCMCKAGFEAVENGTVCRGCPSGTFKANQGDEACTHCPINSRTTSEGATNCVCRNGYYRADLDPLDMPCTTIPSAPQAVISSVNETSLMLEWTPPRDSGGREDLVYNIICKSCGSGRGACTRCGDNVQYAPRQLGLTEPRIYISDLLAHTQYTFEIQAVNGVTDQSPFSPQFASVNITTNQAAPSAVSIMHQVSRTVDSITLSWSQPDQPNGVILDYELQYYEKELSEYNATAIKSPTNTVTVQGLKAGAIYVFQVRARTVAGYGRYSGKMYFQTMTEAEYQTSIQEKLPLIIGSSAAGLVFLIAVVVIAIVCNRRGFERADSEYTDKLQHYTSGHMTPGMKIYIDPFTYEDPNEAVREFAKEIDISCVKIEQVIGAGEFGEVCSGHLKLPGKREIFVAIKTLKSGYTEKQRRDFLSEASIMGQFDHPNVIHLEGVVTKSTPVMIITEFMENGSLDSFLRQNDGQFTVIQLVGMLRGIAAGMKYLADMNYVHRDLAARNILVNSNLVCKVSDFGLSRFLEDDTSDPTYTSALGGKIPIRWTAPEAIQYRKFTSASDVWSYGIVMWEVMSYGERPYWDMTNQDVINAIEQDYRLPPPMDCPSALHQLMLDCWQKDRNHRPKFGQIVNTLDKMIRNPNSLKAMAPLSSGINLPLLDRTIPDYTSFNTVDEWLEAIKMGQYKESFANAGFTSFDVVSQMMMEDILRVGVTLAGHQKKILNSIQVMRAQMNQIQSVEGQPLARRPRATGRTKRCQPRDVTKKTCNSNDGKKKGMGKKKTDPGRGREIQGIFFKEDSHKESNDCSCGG
Chain of EPHB1 (P54762 whole entry, looked up): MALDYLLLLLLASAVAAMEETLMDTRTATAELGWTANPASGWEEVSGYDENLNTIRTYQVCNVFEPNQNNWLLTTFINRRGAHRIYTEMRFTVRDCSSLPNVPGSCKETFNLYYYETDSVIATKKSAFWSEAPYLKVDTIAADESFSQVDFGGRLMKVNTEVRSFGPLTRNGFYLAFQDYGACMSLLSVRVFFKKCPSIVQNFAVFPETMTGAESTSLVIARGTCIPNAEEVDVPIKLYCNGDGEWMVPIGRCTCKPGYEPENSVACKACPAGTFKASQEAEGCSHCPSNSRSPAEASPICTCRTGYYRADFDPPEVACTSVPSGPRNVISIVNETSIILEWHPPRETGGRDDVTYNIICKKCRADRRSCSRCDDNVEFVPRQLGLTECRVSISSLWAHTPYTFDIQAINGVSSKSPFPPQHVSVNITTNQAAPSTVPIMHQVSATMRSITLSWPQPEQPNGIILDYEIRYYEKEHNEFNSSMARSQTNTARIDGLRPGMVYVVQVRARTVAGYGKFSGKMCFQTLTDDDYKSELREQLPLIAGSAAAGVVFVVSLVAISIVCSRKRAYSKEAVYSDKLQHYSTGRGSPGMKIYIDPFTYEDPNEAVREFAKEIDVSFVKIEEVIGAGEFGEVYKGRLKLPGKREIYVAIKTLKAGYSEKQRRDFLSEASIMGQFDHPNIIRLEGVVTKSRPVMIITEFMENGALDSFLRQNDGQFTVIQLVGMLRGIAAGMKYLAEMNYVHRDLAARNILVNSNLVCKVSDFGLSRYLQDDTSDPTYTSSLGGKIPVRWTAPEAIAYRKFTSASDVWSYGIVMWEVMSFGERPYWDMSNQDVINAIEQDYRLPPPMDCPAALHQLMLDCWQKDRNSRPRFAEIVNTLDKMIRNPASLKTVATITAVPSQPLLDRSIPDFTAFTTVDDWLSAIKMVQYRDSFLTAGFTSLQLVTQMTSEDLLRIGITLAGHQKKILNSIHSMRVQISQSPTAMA

Row | Sequence | SH2 binding enrichment (SHP2-C SH2) | SH2 binding enrichment (Grb2 SH2) | SH2 binding enrichment (c-Src SH2) | phosphorylation enrichment (c-Abl (mouse)) | phosphorylation enrichment (Hck) | phosphorylation enrichment (c-Src) | phosphorylation enrichment (AncSZ) | phosphorylation enrichment (EPHB1) | phosphorylation enrichment (Jak2) | phosphorylation enrichment (Fes) | phosphorylation enrichment (Fer (mouse)) | phosphorylation enrichment (EPHB2) | phosphorylation enrichment (MERTK) | phosphorylation enrichment (Fyn) | phosphorylation enrichment (FGFR1) | phosphorylation enrichment (FGFR3)
1 | IKIMGSSIRTI [IDS_Y490_Y490S] | 0.717 | 0.836 | 0.533 | 0.526 | 0.435 | 0.414 | 0.557 | 0.436 | 0.492 | 0.53 | 0.387 | 0.393 | 0.424 | 0.411 | 0.502 | 0.45
2 | PTTKTYFPRFD [HBA1_Y43_H46R] | 0.91 | 0.819 | 0.446 | 0.609 | 0.38 | 0.421 | 0.569 | 0.493 | 0.731 | 0.772 | 0.505 | 0.421 | 0.373 | 0.319 | 0.455 | 0.432
3 | REVPVYTDSEP [FAM120B_Y368] | 0.351 | 0.986 | 0.911 | 0.964 | 0.643 | 0.872 | 1.35 | 0.965 | 1.38 | 1.35 | 0.895 | 0.725 | 0.478 | 0.753 | 0.588 | 1.4
4 | CTLLPYFSAPV [DGKE_Y269_R273P_YF] | 0.622 | 0.71 | 0.462 | 0.896 | 0.557 | 0.569 | 1.24 | 0.66 | 1.19 | 1.34 | 0.493 | 0.677 | 0.453 | 0.518 | 0.615 | 0.826
5 | DERQPYAHMNG [IGF1R_Y1346] | 0.767 | 0.729 | 1.85 | 0.455 | 0.427 | 0.376 | 0.588 | 0.359 | 0.533 | 0.599 | 0.456 | 0.362 | 0.343 | 0.438 | 0.45 | 0.459
6 | RFFTTYDTNGR [CLCA1_Y665_YF] | 1.67 | 0.825 | 0.532 | 0.858 | 0.787 | 1.09 | 1.08 | 0.726 | 0.816 | 0.951 | 0.688 | 0.834 | 0.707 | 0.627 | 0.674 | 0.878
7 | KSVITYSPTTG [ITGB3BP_Y32] | 0.849 | 0.91 | 0.507 | 0.447 | 0.353 | 0.462 | 0.49 | 0.325 | 0.586 | 0.592 | 0.401 | 0.49 | 0.403 | 0.38 | 0.37 | 0.464
8 | SLEKGYELPDG [ACTC1_Y242_S241G] | 0.847 | 0.832 | 5.21 | 0.6 | 0.488 | 0.368 | 0.994 | 0.475 | 0.756 | 0.909 | 0.436 | 0.499 | 0.35 | 0.49 | 0.438 | 0.545
9 | SPPPAFTPMSG [ERBB4_Y1056_Y1056F] | 0.615 | 0.67 | 0.364 | 0.45 | 0.469 | 0.442 | 0.597 | 0.349 | 0.496 | 0.441 | 0.439 | 0.416 | 0.461 | 0.305 | 0.402 | 0.465

Second part, led by results:

Row | SH2 binding enrichment (SHP2-C SH2) | SH2 binding enrichment (Grb2 SH2) | SH2 binding enrichment (c-Src SH2) | Sequence | phosphorylation enrichment (c-Abl (mouse)) | phosphorylation enrichment (Hck) | phosphorylation enrichment (c-Src) | phosphorylation enrichment (AncSZ) | phosphorylation enrichment (EPHB1) | phosphorylation enrichment (Jak2) | phosphorylation enrichment (Fes) | phosphorylation enrichment (Fer (mouse)) | phosphorylation enrichment (EPHB2) | phosphorylation enrichment (MERTK) | phosphorylation enrichment (Fyn) | phosphorylation enrichment (FGFR1) | phosphorylation enrichment (FGFR3)
10 | 0.844 | 0.879 | 0.464 | EKQVAYCPSGK [ROS1_Y2323] | 0.567 | 0.442 | 0.358 | 0.634 | 0.413 | 0.638 | 0.795 | 0.32 | 0.445 | 0.412 | 0.383 | 0.49 | 0.505
11 | 0.628 | 0.863 | 0.511 | LITSVYGCSRQ [TMPRSS6_Y290] | 1.27 | 1.83 | 1.7 | 1.39 | 0.989 | 1.24 | 1.25 | 0.716 | 1 | 0.545 | 1.57 | 1.04 | 1.21
12 | 0.97 | 0.856 | 1.35 | MALDRYVAICK [OR2B11_Y127] | 0.863 | 0.51 | 0.454 | 0.762 | 0.581 | 0.665 | 0.838 | 0.499 | 0.575 | 0.411 | 0.464 | 0.508 | 0.604
13 | 0.729 | 0.689 | 0.462 | SPFAVYRFFTF [RPGRIP1_Y826_YF] | 0.961 | 0.867 | 0.91 | 1.22 | 0.501 | 1.08 | 1.33 | 0.496 | 0.519 | 0.45 | 0.68 | 0.637 | 0.798
14 | 0.435 | 0.808 | 0.427 | LGSNTYPFLLM [SAG_Y120_T125M] | 1.05 | 0.492 | 0.713 | 1.12 | 0.835 | 1.31 | 1.73 | 0.646 | 0.783 | 0.36 | 0.384 | 1.91 | 1.86

Reference: the supplement of paper PMC10065799, “High-throughput profiling of sequence recognition by tyrosine kinases and SH2 domains using bacterial peptide display” (eLife, 2023)
